Test results from US20050282239A1, “Cell-permeable enzyme activation reporter that can be loaded in a high throughput and gentle manner” (priority 2003, published 2005).
Ends that are not written are not given here.

Experiments:
PKB [1] = molecular target: T1, PKB (Homo sapiens, UniProt P31749); assay: CACE: intracellular phosphorylation of PKB substrate in HT1080 cells; type: cell-based
T1 construct: endogenous in cells; host or cells: HT1080 cells; HT1080/PTEN cells (engineered to over-express wild type PTEN, PKB itself not transfected)
T1 sequence (P31749 whole entry): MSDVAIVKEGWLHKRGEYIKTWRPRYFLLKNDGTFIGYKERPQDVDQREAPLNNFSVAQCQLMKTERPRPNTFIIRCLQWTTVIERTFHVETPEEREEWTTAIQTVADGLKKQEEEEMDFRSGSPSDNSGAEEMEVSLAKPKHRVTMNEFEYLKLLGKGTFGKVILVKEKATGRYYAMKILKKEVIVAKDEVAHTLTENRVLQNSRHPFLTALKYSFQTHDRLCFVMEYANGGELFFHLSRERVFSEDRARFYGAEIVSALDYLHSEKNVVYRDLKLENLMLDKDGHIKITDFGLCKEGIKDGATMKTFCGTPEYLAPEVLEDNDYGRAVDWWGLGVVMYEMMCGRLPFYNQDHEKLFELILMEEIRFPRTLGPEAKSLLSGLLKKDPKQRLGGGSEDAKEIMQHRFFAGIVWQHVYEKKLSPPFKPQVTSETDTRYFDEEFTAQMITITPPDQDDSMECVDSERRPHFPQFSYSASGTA
Source text: Since the properties of F-PKB (SEQ ID NO:17) microinjected into HT1080 cells have been well characterized, experiments were undertaken to compare the fate of F-PKB-C loaded as F-PKB-C-SS-TAT (SEQ ID NO:16) into HT1080 cells to that of the microinjected F-PKB (SEQ ID NO:17). When microinjected, the percentage of phosphorylated F-PKB depended on the relative, steady-state levels of both the kinases and phosphatases. This observation is shown in electrophoretic traces from cells loaded with F-PKB-C-SS-TAT (1 μM) (FIG. 6). A single asterisk denotes the migration time of F-PKB, and a double asterisk denotes the migration time of phosphorylated F-PKB from cells on the day of the experiment.
(§1) CACE has been previously described (Sims, Meredith et al. 1998; Meredith, Sims et al. 2000; Li, Wu et al. 2001). Briefly, cells were placed on an inverted fluorescence microscope stage (Diaphot 300, Nikon, Japan) and maintained at 37° C. with an objective heater (Bioptechs; Butler, Pa.) prior to lysis unless stated otherwise. The cells were continually washed with ECB maintained at 37° C. (unless otherwise indicated) with a flow rate of 1 ml/min and a total chamber volume of 0.5 ml. The inlet of a capillary (30 μm I.D., 360 μm O.D., 75 cm long) was positioned 10 μm above the cell. The inverted microscope was coupled to a pulsed Nd:YAG laser and a CE system (Sims, 1998). The CACE-based assay was performed as previously described (U, 2001; Meredith, 2000). Cells were always maintained in ECB when analyzed by the CACE.
CE was performed as described (Sims, Meredith et al. 1998), with the following modifications. The inner walls of the capillaries (30 μm I.D., 360 μm O.D.) were coated with poly(acrylate) (Wang, Hu et al. 2003). The outlet of the capillary was held at a negative potential of 18-21 kV, and the inlet reservoir was held at ground potential. Under these conditions, the current through the capillary was typically ˜36 μA. Solutions of standards were loaded into the capillary by gravitational fluid flow. The loaded volume was calculated from Poiseulle's equation and from contributions by spontaneous fluid displacement and diffusion (Weinberger, 2000; Fishman, 1994; Crank, 1989). To estimate the number of moles of peptide in an unknown solution or within a cell, the peak area from the electrophoretic trace of the solution or the cell was compared to that of a standard of known concentration separated by electrophoresis on the same day. A 1 pL cell volume and 100% peptide recovery was assumed in calculating intracellular peptide concentration (Meredith, Sims et al. 2000; Sims, Meredith et al. 1998). Analytes were detected by laser-induced fluorescence (Sims, Meredith et al. 1998).
Cells were incubated at room temperature for 5 minutes in 1% bovine serum albumin (BSA) in ECB, washed in ECB, and then incubated for 5 minutes at room temperature with a substrate conjugated to TAT(49-57). The cells were then washed with 1% BSA in ECB. Cells loaded with the disulfide conjugate were placed in supplement DMEM (10% FCS, 4 mM L-glutamine, 100 U/mL penicillin and 100 μg/mL streptomycin) and incubated at 37° C. in 5% CO2 for 20 minutes. Cells loaded with the photolabile conjugate were placed in supplemented DMEM and incubated at 37° C. in 5% CO2 for 10 minutes (unless stated otherwise) and were then illuminated with a UV light source for 10 seconds (a radiant energy/unit area of 2 kJ/m^2). The supplemented DMEM was exchanged and the cells were incubated another 10 minutes at 37° C. in 5% CO2. Just prior to analysis the cells were washed into ECB.

PKB [2] = molecular target: T1, PKB; assay: CACE: intracellular phosphorylation of PKB substrate in HT1080/PTEN cells; type: cell-based; settings: 1 μM extracellular, UVA 10 s
Description: Previous investigators developed cleavable PTD-cargo conjugates by engineering a disulfide linkage between the two domains (Stein, Weiss et al. 1999; Hallbrink, Floren et al. 2001). […] TAT(49-57)(SEQ ID NO:2) was conjugated via a disulfide bond to cysteines added to substrate peptides for CamKII (F-CamKII-C; SEQ ID NO:13) or PKB (F-PKB-C; SEQ ID NO:14), denoted F-CamKII-C-SS-TAT (SEQ ID NO:15) and F-PKB-C-SS-TAT (SEQ ID NO:16), respectively. The TAT(49-57)-Conjugated substrates were incubated with cells (HT1080 or HT1080/PTEN cells) and the contents of the cells were analyzed by the CACE. […]
CACE has been previously described (Sims, Meredith et al. 1998; Meredith, Sims et al. 2000; Li, Wu et al. 2001). Briefly, cells were placed on an inverted fluorescence microscope stage (Diaphot 300, Nikon, Japan) and maintained at 37° C. with an objective heater (Bioptechs; Butler, Pa.) prior to lysis unless stated otherwise. […] Cells were always maintained in ECB when analyzed by the CACE.
(§2) CE was performed as described (Sims, Meredith et al. 1998), with the following modifications. […] The loaded volume was calculated from Poiseulle's equation and from contributions by spontaneous fluid displacement and diffusion (Weinberger, 2000; Fishman, 1994; Crank, 1989). […] Analytes were detected by laser-induced fluorescence (Sims, Meredith et al. 1998). […]

[3] = In vitro UVA photocleavage of photolabile conjugate, CE quantification; type: physicochemical
Source text: Therefore, we designed a second detachable linker between the TAT(49-57) and the substrate peptide. An Fmoc-aminoethyl photolabile moiety was inserted between the fluorescently-labeled substrate and the TAT(49-57) sequences using standard Fmoc peptide chemistry. The relative order of the different portions of the conjugate was: fluorescein-substrate-PLL-TAT(49-57). Two different substrate peptides were conjugated to TAT(49-57) to form F-PKB-PLL-TAT (SEQ ID NO:18) and F-CamKII-PLL-TAT (SEQ ID NO:19). To determine the time and irradiation intensity needed to photocleave the conjugated peptides, standard solutions (1 nM or 10 μM) of F-PKB-PLL-TAT (SEQ ID NO:18) were illuminated with long-wavelength UV light (UVA) for varying times. The sample was then loaded into a capillary and electrophoresis performed. The concentration of the released substrate peptide was quantified from its fluorescence. At the irradiation intensity used, maximal cleavage of the substrate peptide from the TAT(49-57) sequence was achieved within 20 minutes. […] After a 10 s exposure, 2% of the conjugate was photoreleased. […] The fluorescein was not substantially photobleached by the UVA-induced cleavage since the amount of fluorescent peptide detected after a 4 h irradiation was almost identical to that after 20 min of UVA exposure.
The photolabile TAT(49-57) conjugate (e.g., SEQ ID NOs:18 or 19) (1 nM or 10 μM in ECB) was illuminated with ultraviolet A (UVA; 20 mW/cm^2) using a 365 nm light source (UVP Blak-Ray B100AP; Upland, Calif.). […] for the photolabile group was 365 nm. After photo-release, the fluorescent substrate was resolved by electrophoresis and then quantified by CE. Detection wavelengths were: excitation, 488 nm; emission, 505-565 nm.
A known concentration of the photo-cleavable reporter was placed in an uncapped, shallow vial. The sample was then illuminated with the UV light source for varying times as described above. A small amount of the sample was then removed and the amount of released peptide was quantified using CE. […]

HT1080 cells = assay: CACE single-cell analysis: loading and release of cargo; type: cell-based, human
CamKII = assay: CACE: intracellular phosphorylation of CamKII substrate in HT1080 cells; type: cell-based, human
Description: To determine whether the detached peptide substrates were in the cytosol and accessible to kinases, the intracellular phosphorylation of the translocated cargo was studied. In the initial experiment, F-CamKII-C-SS-TAT (SEQ ID NO:15) at 750 nM extracellular concentration was loaded into HT1080 cells. The cells were incubated with ionomycin (500 nM) for 15 min to increase the intracellular concentration of free Ca^2+ and activate the CamKII enzyme (Worrell and Frizzell 1991). […] The migration time of the second peak was identical to that of phosphorylated F-CamKII-C loaded into cells. 52+3% (mean±SEM) (n=5) of the F-CamKII-C was phosphorylated as determined by comparison of the peak areas. At least half of the F-CamKII-C was in the cytosol and accessible to the kinase. For these cells the average number of moles per cell was ˜2×10^−20 which is equivalent to a cytosolic concentration of ˜100 nM.
as §1, §2

Q: With “Gly Arg Pro Arg Ala Ala Thr Phe Ala Glu Gly (GRPRAATFAEG-NH2; not fully specified (N-terminus); printed as Gly Arg Pro Arg Ala Ala Thr Phe Ala Glu Gly; also: fluorescein label, position not given here) [F-PKB, fluorescein-labeled substrate for protein kinase B]” as the substance, how does the “peptide phosphorylated at steady state” value (PKB [1]; microinjected) read?
A: Its value is “approximately 70%”.

Q: And the “time to steady state of phosphorylation” value (PKB [1]; microinjected)?
A: Its value is “less than 2 min”.

Q: For “Gly Arg Pro Arg Ala Ala Thr Phe Ala Glu Gly Arg Lys Lys Arg Arg Gln Arg Arg Arg (GRPRAATFAEGRKKRRQRRR-NH2; not fully specified (residue 11, N-terminus); printed as Gly Arg Pro Arg Ala Ala Thr Phe Ala Glu Gly Arg Lys Lys Arg Arg Gln Arg Arg Arg; also: fluorescein, position not given here, photolabile linker, position not given here) [F-PKB-PLL-TAT, fluorescein-PKB substrate-photolabile linker-TAT(49-57)]”, which “F-PKB present in the phosphorylated form” value (PKB [1]; 1 μM extracellular, UVA 10 s, n=15) is on record?
A: Its value is 67±7%.

Q: What about the “percentage of phosphorylated F-PKB versus incubation time” value (PKB [1]; 1 μM, 37° C.) of the same substance?
A: Its value is “did not vary with the incubation time”.

Q: What about the “time scale on which F-PKB is accessible to kinase” value (PKB [1]; 1 μM, 37° C.) of the same substance?
A: The value was under 30 min.

Q: And the “phosphorylation of F-PKB” value (PKB [1]; 1 μM, 4° C.)?
A: Its value is “Essentially no phosphorylation”.

Q: What about the “percentage of phosphorylated F-PKB” value (PKB [1]; 1 μM, 23° C. and 37° C.) of the same substance?
A: Its value is “similar”.

Q: And the “phosphorylation of released F-PKB” value (PKB [2])?
A: The value was “not seen”.

Q: And the conjugate photoreleased ([3]; 10 s UVA exposure)?
A: Its conjugate photoreleased is 2%.

Q: What about the “time to maximal cleavage of substrate peptide from TAT(49-57)” value ([3]; UVA, 1 nM or 10 μM solution) of the same substance?
A: The value was at most 20 min.

Q: What about the free substrate peptide ([3]; without UVA illumination) of the same substance?
A: Its free substrate peptide is “no free substrate peptide could be detected”.

Q: And the “cytoplasmic concentration of free F-PKB” value (HT1080 cells; 1 μM 5 min, 30 min incubation, UVA 10 s)?
A: The value was about 200 nM.

Q: And the “average quantity of F-PKB detected per cell” value (HT1080 cells; 1 μM 5 min, 30 min incubation, UVA 10 s, n=15)?
A: Its value is 2e-19 ± 9e-20 mol.

Q: And the “internalization process into the cytosol” value (HT1080 cells; 1 μM, 37° C.)?
A: Its value is “complete within one hour”.

Q: And the “total amount of F-PKB detected versus incubation time” value (HT1080 cells; 1 μM, 37° C., 5 min adsorption, wash, varying incubation, UVA 10 s)?
A: Its value is “increased over the initial hour of incubation and then stabilized”.

Q: And the “amount of F-PKB measured per cell” value (HT1080 cells; 1 μM, 4° C.)?
A: Its value is “reduced”.

Q: What about the “amount of F-PKB measured per cell” value (HT1080 cells; 1 μM, 23° C. and 37° C.) of the same substance?
A: Its value is “similar”.

Q: What does the source list for “KKALHRQETVDALCRKKRRQRRR [F-CamKII-C-SS-TAT]”?
A: F-CamKII-C phosphorylated (mean±SEM) (CamKII; 750 nM extracellular, ionomycin 500 nM 15 min, n=5): 52+3%; average number of moles per cell (HT1080 cells; 750 nM extracellular, ionomycin-treated cells): ~2e-20 mol; cytosolic concentration (HT1080 cells; 750 nM extracellular, ionomycin-treated cells, 1 pL cell volume assumed): ~100 nM

Q: What does the source list for “KKALHRQETVDALCRKKRRQRRR [F-CamKII-PLL-TAT]”?
A: total F-CamKII phosphorylated (CamKII; 300 nM extracellular, ionomycin 500 nM 15 min, n=3): 67±17%; average concentration of F-CamKII in the cytosol (HT1080 cells; 300 nM extracellular): 180 nM; detectable F-CamKII per cell (HT1080 cells; 300 nM extracellular, n=3): 1.8e-19 ± 1.9e-19 mol

Q: For “Lys Lys Ala Leu His Arg Gln Glu Thr Val Asp Ala Leu Cys (KKALHRQETVDALC-NH2; not fully specified (N-terminus); printed as Lys Lys Ala Leu His Arg Gln Glu Thr Val Asp Ala Leu Cys; also: fluorescein label, position not given here) [F-CamKII-C, fluorescein-labeled CamKII substrate with added cysteine]”, which “phosphorylation in unstimulated cells” value (CamKII; HT1080 cells, no constitutive CamKII activity) is on record?
A: The value was “little to no phosphorylation”.
